Assay results from patent publication US4843003.

Test system: Exonuclease III (Escherichia coli)
Assay: cleavage_in_vitro
Details: 37 C, 66 mM Tris-HCl pH 8, 0.66 mM MgCl2

Row | Substance | activity (nucleotides/min) (after 25 s delay, one-way digestion, no sequence preference seen) | activity (nucleotides/min) (digested from 5' protruding end, not from SstI 3' protruding end, 14.4 kb removed per end in 32 min)
1 | M13 mp18 with 4.5 kb EcoRI Drosophila Gart insert, SalI/SphI cut | 450 | 
2 | Bacteriophage lambda DNA SstI terminal fragments (24.8 kb and 22.6 kb), 5' 12-nt protruding end |  | 450
